Measured values taken from US20160347850A1 (AbbVie / Abbott, published 2016).
Residue numbers refer to the chain shown, from its start.

B1: huAb1v6 (antibody, V domains shown)
VH: EVQLVESGGGLVKPGGSLRLSCAASGFTFSDYGMNWVRQAPGKGLEWIAYISSGRSNIYYADTVKGRFTISRDNAKNSLYLQMNSLRAEDTAVYYCARSWGYFDVWGQGTTVTVSS
VL: DIVMTQSPDSLAVSLGERATINCKSSQSLLNLGNQKNYLTWFQQKPGQPPKLLIYWASTRESGVPDRFSGSGSGTDFTLTISSLQAEDVAVYYCQNDYTYPLTFGQGTKLEIK
B2: huAb1v1 (antibody, V domains shown)
VH: B1 VH
VL: B1 VL with L32R
B3: huAb1v2 (antibody, V domains shown)
VH: B1 VH with I48V, A49S
VL: B1 VL with L32T
B4: huAb1v3 (antibody, V domains shown)
VH: B1 VH with I48V, A49S
VL: B1 VL
B5: huAb1v4 (antibody, V domains shown)
VH: B1 VH
VL: B1 VL with L32P
B6: huAb1v5 (antibody, V domains shown)
VH: B1 VH
VL: B1 VL with L32T
B7: huAb1v1CDR2v7 (antibody, V domains shown)
VH: B1 VH with S56G
VL: B1 VL with L32R
B8: chimeric Ab2 (chAb2) (antibody, V domains shown)
VH: EVQLVESGGGLVKPGGSLKVSCAASGFTFSDYGMNWVRQSPEKGLEWIAYISSGRGNIYYADTVKGRFTISRDNAKNTLFLQMTSLRSEDTAMYYCARSWGYFDVWGTGTTVTVSS
VL: DIVMTQSPSSLTVTAGEKVTMSCKSSQSLLNSGNQKNYLTWFQQKPGQPPKLLIYWASTRESGVPDRFTGSGSGTDFTLTISSVQAEDLAVYYCQNDYTYPLTFGAGTKLELK
B9: huAb1v1CDR2v17 (antibody, V domains shown)
VH: B1 VH with S56P
VL: B1 VL with L32R
B10: huAb1v1CDR2v16 (antibody, V domains shown)
VH: B1 VH with S56A
VL: B1 VL with L32R
B11: huAb1v1CDR2v15 (antibody, V domains shown)
VH: B1 VH with S56Y
VL: B1 VL with L32R
B12: huAb1v1CDR2v14 (antibody, V domains shown)
VH: B1 VH with S56F
VL: B1 VL with L32R
B13: huAb1v1CDR2v13 (antibody, V domains shown)
VH: B1 VH with S56H
VL: B1 VL with L32R
B14: huAb1v1CDR2v12 (antibody, V domains shown)
VH: B1 VH with S56K
VL: B1 VL with L32R
B15: huAb1v1CDR2v11 (antibody, V domains shown)
VH: B1 VH with S56M
VL: B1 VL with L32R
B16: huAb1v1CDR2v10 (antibody, V domains shown)
VH: B1 VH with S56W
VL: B1 VL with L32R
B17: huAb1v1CDR2v9 (antibody, V domains shown)
VH: B1 VH with S56Q
VL: B1 VL with L32R
B18: huAb1v1CDR2v8 (antibody, V domains shown)
VH: B1 VH with S56I
VL: B1 VL with L32R
B19: huAb1v1CDR2v6 (antibody, V domains shown)
VH: B1 VH with S56L
VL: B1 VL with L32R
B20: huAb1v1CDR2v5 (antibody, V domains shown)
VH: B1 VH with S56V
VL: B1 VL with L32R
B21: huAb1v1CDR2v4 (antibody, V domains shown)
VH: B1 VH with S56R
VL: B1 VL with L32R
B22: huAb1v1CDR2v3 (antibody, V domains shown)
VH: B1 VH with S56E
VL: B1 VL with L32R
B23: huAb1v1CDR2v2 (antibody, V domains shown)
VH: B1 VH with S56D
VL: B1 VL with L32R
B24: huAb1v1CDR2v1 (antibody, V domains shown)
VH: B1 VH with S56T
VL: B1 VL with L32R
B25: chimeric Ab1 (chAb1) (antibody, V domains shown)
VH: B8 VH with S40A, G56S
VL: B8 VL with K18M, T69A, L112I
notes: Murine Ab1 variable regions on human constant regions; also called chimeric antibody (Antibody 1 (Ab1))
B26: chimeric Ab3 (chAb3) (antibody, V domains shown)
VH: QVQLQQSGAELARPGASVKMSCKAFGYTFTSYTMHWVKQRPGQGLEWIGYINPSSDYPNYNQKFKDKATLTADKSSSTAYMQLSSLTSEDSAVYYCARWGYSFDYWGQGTTLTVSS
VL: DIVMTQAAPSVSVIPGESVSISCRSSKSLLHSNGNTYLYWFLQRPGQSPQYLIYRMSTLASGVPDRFSGSGSGTAFTLRISRVEAEDVGVYYCMQHLEYPLTFGAGTKLELK
notes: also called chimeric Antibody 3

Biological target: T1, Human CD40 (human, UniProt P25942 21-277)
T1 sequence (P25942 21-277 limits assumed): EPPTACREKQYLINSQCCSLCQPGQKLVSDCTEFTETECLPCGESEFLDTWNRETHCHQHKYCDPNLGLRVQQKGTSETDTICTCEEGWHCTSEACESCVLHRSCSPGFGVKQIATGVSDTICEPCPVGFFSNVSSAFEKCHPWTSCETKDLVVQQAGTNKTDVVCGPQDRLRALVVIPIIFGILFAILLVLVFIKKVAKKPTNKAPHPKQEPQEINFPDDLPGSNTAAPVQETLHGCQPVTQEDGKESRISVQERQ
Experiment: cell-based or functional assay

Molecule | Antagonist: Jurkat/Reporter assay IC50 [nM] | Agonist: huCD40 reporter assay IC50 [nM]
B1 | 85 | –
B2 | 55 | –
B3 | > 100 | –
B4 | – | 79
B5 | – | 49
B6 | > 100 | –

Biological target: T1, Human CD40
Experiment: cell-based or functional assay
Remark: another data set of the same source

Molecule | antagonistic activity in comparison to antibody huAb1v1 [fold]
B7 | 20

Biological target: T2, cyno CD40 (cynomolgus monkey, UniProt G7PG38 21-278)
T2 construct: whole, on cells; also called cyCD40; cynomolgus monkey CD40
Experiment: FACS binding on HEK cells expressing cyCD40

Molecule | binding result
B8 | binds

Biological target: T1, Human CD40
Experiment: cell-based or functional assay
Remark: another data set of the same source

Molecule | production of TNF from monocytes, EC50 (agonist assay format) [nM]
MEGACD40L (Enzo) (ligand) | 1.9

Biological target: T1, Human CD40
Experiment: cell-based or functional assay
Remark: another data set of the same source

Molecule | Antagonist: Jurkat/Reporter assay (IC50 nM) [nM]
B9 | 504
B10 | 30.1
B11 | 340
B12 | 21.9
B13 | 62.4
B14 | 236
B15 | > 1000
B16 | 23
B17 | 7.06
B18 | > 1000
B7 | 2.69
B19 | > 1000
B20 | > 1000
B21 | 563
B22 | 219
B23 | > 1000
B24 | > 1000

Biological target: T1, Human CD40
Experiment: FACS blocking of sCD40L binding to CD40 expressing HEK cells
Protocol: FACS analysis was also used to determine whether the three chimeric antibodies could inhibit binding of soluble CD40 ligand (sCD40L) to CD40. Using CD40 expressing HEK cells, IC50 values were measured. As described in Table 10, each of the chimeric antibodies was able to block CD40 binding to its ligand.

Molecule | IC50 [nM]
B25 | 2.3
B8 | 1.4
B26 | 1.4

Biological target: T2, cyno CD40
Experiment: FACS on HEK cells expressing cyno CD40

Molecule | binding result
B26 | no binding

Biological target: T1, Human CD40
Experiment: cell-based or functional assay
Remark: another data set of the same source

Molecule | Antagonist: His-CD40L reporter assay IC50 [nM] | Antagonist: Jurkat/Reporter assay IC50 [nM]
B25 | 0.4 | 51
B8 | 0.3 | 3.4
B26 | 0.2 | 0.9
